Results as given in patent publication US20070093443A1 (CATALYST BIOSCIENCES, published 2007).

T1: alpha-2 macroglobulin (in human plasma) (human, UniProt P01023 24-1474)
T1 construct: Not purified: the endogenous protein of the plasma
T1 sequence (looked up): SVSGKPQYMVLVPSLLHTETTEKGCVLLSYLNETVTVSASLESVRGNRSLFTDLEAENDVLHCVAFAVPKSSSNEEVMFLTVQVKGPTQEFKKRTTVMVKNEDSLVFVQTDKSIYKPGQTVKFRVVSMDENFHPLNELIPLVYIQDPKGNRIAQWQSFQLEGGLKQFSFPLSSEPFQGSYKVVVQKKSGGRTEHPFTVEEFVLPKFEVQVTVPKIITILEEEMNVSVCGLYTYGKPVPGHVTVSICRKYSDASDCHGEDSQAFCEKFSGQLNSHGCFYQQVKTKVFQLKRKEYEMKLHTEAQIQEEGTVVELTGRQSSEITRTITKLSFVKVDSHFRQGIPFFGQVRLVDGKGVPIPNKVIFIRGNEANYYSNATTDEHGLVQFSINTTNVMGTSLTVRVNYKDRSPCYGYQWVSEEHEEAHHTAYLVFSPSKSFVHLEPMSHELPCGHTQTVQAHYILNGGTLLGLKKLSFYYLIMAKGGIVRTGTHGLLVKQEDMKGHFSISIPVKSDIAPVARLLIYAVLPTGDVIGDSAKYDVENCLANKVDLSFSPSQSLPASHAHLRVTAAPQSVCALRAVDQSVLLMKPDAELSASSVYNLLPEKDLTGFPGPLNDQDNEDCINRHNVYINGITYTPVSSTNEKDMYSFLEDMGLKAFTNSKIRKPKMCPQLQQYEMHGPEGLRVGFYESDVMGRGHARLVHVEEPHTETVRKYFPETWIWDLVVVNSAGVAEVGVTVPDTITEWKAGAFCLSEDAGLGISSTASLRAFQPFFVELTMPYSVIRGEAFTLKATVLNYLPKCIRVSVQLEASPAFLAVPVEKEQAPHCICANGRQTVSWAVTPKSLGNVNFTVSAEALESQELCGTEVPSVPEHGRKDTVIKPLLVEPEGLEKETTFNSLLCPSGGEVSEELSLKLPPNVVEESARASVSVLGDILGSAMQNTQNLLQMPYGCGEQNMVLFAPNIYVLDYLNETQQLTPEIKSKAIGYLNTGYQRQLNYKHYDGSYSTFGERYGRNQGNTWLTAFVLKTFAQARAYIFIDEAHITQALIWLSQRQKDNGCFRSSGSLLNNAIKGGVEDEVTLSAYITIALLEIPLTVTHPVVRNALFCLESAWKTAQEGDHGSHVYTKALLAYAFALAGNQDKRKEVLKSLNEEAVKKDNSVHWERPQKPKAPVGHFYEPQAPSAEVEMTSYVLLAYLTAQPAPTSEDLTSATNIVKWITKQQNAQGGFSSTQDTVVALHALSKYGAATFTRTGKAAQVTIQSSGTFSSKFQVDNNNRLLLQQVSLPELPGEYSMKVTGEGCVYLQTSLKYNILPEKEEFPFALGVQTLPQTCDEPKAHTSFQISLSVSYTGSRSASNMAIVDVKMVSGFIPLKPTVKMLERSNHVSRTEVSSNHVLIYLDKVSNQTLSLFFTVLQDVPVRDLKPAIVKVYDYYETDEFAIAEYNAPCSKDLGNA


Target: T1, alpha-2 macroglobulin (in human plasma)
Assay: Ac-RQAR-AMC activity of protease after 5 min in human citrated plasma, with and without M84R ecotin
Procedure: In addition, the percent protease unbound by alpha-2 macroglobulin (a2M) also was determined. Inactivation of a protease by alpha-2 macroglobulin traps the protease in a complex where it is still able to turn over small fluorescent substrates, but unable to access large protein substrates. This property of alpha-2 macroglobulin complicates the assessment of a proteases activity in plasma. To determine the actual activity of the free, uncomplexed protease in plasma, a two step measurement is required. First, the sample's activity on fluorescent substrates is measured. […] The percent unbound by alpha-2 macroglobulin activity is the percentage of the plasma residual activity that is inhibited by the addition of the ecotin. Briefly, in a 0.2 mL PCR tube, 1 μL 10× protease was mixed with 9 μL human plasma in citrate (Innovative Research). A uninhibted control also was prepeared containing 1 μL 10× protease mixed with 9 μL PBST. The mixtures were incubated for 5 minutes at 37° C. The samples were diluted 250 fold in PBST and stored on ice. Two 50 μL aliquots for each sample were transferred to an opaque assay plate (Costar #3694) containing 2 μL PBST or 2 μL 520 nM M84R ecotin. The plates were incubated 10 minutes at room temperature. Five microliters 0.4 mM Ac-RQAR-AMC substrate was added and the fluorescence was measured over time with a SpectraMax M5 spectrafluorometer (Molecular Devices) set to read every 20 seconds for 30 minutes at 30° C. (Ex: 380 nm, EM: 450 nm, Cut-off: 435 nm). The percent unbound by alpha-2 macroglobulin was calculated with the following formula: (1-([(Protease in plasma/Protease in PBST)−(Protease in plasma+ecotin/Protease in PBST)]/(Protease in plasma/Protease in PBST)))*100.

| Binder | % Unbound by a2M |
| --- | --- |
| modified MT-SP1 CB483 (I41T/Y146D/G151L/Q175D/K224N) protease domain (enzyme) VVGGTDADEGEWPWQVSLHALGQGHTCGASLISPNWLVSAAHCYIDDRGFRYSDPTQWTAFLGLHDQSQRSAPGVQERRLKRIISHPFFNDFTFDYDIALLELEKPAEYSSMVRPICLPDASHVFPAGKAIWVTGWGHTQDGGTLALILQKGEIRVINQTTCENLLPQDITPRMMCVGFLSGGVDSCQGDSGGPLSSVEADGRIFQAGVVSWGDGCAQRNNPGVYTRLPLFRDWIKENTGV | 73% |
| modified MT-SP1 CB482 (I41T/Y146D/G151L/Q175D/K224R) protease domain (enzyme) VVGGTDADEGEWPWQVSLHALGQGHTCGASLISPNWLVSAAHCYIDDRGFRYSDPTQWTAFLGLHDQSQRSAPGVQERRLKRIISHPFFNDFTFDYDIALLELEKPAEYSSMVRPICLPDASHVFPAGKAIWVTGWGHTQDGGTLALILQKGEIRVINQTTCENLLPQDITPRMMCVGFLSGGVDSCQGDSGGPLSSVEADGRIFQAGVVSWGDGCAQRNRPGVYTRLPLFRDWIKENTGV | 10% |
| modified MT-SP1 CB488 (I41T/Y146E/G151L/Q175D/K224F) protease domain (enzyme) VVGGTDADEGEWPWQVSLHALGQGHTCGASLISPNWLVSAAHCYIDDRGFRYSDPTQWTAFLGLHDQSQRSAPGVQERRLKRIISHPFFNDFTFDYDIALLELEKPAEYSSMVRPICLPDASHVFPAGKAIWVTGWGHTQEGGTLALILQKGEIRVINQTTCENLLPQDITPRMMCVGFLSGGVDSCQGDSGGPLSSVEADGRIFQAGVVSWGDGCAQRNFPGVYTRLPLFRDWIKENTGV | 85% |
| modified MT-SP1 CB478 (I41T/Y146D/Q175D/K224N) protease domain (enzyme) VVGGTDADEGEWPWQVSLHALGQGHTCGASLISPNWLVSAAHCYIDDRGFRYSDPTQWTAFLGLHDQSQRSAPGVQERRLKRIISHPFFNDFTFDYDIALLELEKPAEYSSMVRPICLPDASHVFPAGKAIWVTGWGHTQDGGTGALILQKGEIRVINQTTCENLLPQDITPRMMCVGFLSGGVDSCQGDSGGPLSSVEADGRIFQAGVVSWGDGCAQRNNPGVYTRLPLFRDWIKENTGV | 89% |
| modified MT-SP1 CB477 (I41T/Y146D/Q175D/K224R) protease domain (enzyme) VVGGTDADEGEWPWQVSLHALGQGHTCGASLISPNWLVSAAHCYIDDRGFRYSDPTQWTAFLGLHDQSQRSAPGVQERRLKRIISHPFFNDFTFDYDIALLELEKPAEYSSMVRPICLPDASHVFPAGKAIWVTGWGHTQDGGTGALILQKGEIRVINQTTCENLLPQDITPRMMCVGFLSGGVDSCQGDSGGPLSSVEADGRIFQAGVVSWGDGCAQRNRPGVYTRLPLFRDWIKENTGV | 67% |
| modified MT-SP1 CB480 (I41T/Y146D/G151L/Q175D/K224F) protease domain (enzyme) VVGGTDADEGEWPWQVSLHALGQGHTCGASLISPNWLVSAAHCYIDDRGFRYSDPTQWTAFLGLHDQSQRSAPGVQERRLKRIISHPFFNDFTFDYDIALLELEKPAEYSSMVRPICLPDASHVFPAGKAIWVTGWGHTQDGGTLALILQKGEIRVINQTTCENLLPQDITPRMMCVGFLSGGVDSCQGDSGGPLSSVEADGRIFQAGVVSWGDGCAQRNFPGVYTRLPLFRDWIKENTGV | 88% |
| modified MT-SP1 CB476 (I41T/Y146D/Q175D/K224L) protease domain (enzyme) VVGGTDADEGEWPWQVSLHALGQGHTCGASLISPNWLVSAAHCYIDDRGFRYSDPTQWTAFLGLHDQSQRSAPGVQERRLKRIISHPFFNDFTFDYDIALLELEKPAEYSSMVRPICLPDASHVFPAGKAIWVTGWGHTQDGGTGALILQKGEIRVINQTTCENLLPQDITPRMMCVGFLSGGVDSCQGDSGGPLSSVEADGRIFQAGVVSWGDGCAQRNLPGVYTRLPLFRDWIKENTGV | 89% |

Second part, the binder after the results:

| % Unbound by a2M | Binder |
| --- | --- |
| 44% | modified MT-SP1 CB486 (I41T/Y146E/Q175D/K224R) protease domain (enzyme) VVGGTDADEGEWPWQVSLHALGQGHTCGASLISPNWLVSAAHCYIDDRGFRYSDPTQWTAFLGLHDQSQRSAPGVQERRLKRIISHPFFNDFTFDYDIALLELEKPAEYSSMVRPICLPDASHVFPAGKAIWVTGWGHTQEGGTGALILQKGEIRVINQTTCENLLPQDITPRMMCVGFLSGGVDSCQGDSGGPLSSVEADGRIFQAGVVSWGDGCAQRNRPGVYTRLPLFRDWIKENTGV |
| 84% | modified MT-SP1 CB421 (I41T/Y146D/Q175D/K224F) protease domain (enzyme) VVGGTDADEGEWPWQVSLHALGQGHTCGASLISPNWLVSAAHCYIDDRGFRYSDPTQWTAFLGLHDQSQRSAPGVQERRLKRIISHPFFNDFTFDYDIALLELEKPAEYSSMVRPICLPDASHVFPAGKAIWVTGWGHTQDGGTGALILQKGEIRVINQTTCENLLPQDITPRMMCVGFLSGGVDSCQGDSGGPLSSVEADGRIFQAGVVSWGDGCAQRNFPGVYTRLPLFRDWIKENTGV |
| 83% | modified MT-SP1 CB422 (I41T/Y146E/Q175D/K224N) protease domain (enzyme) VVGGTDADEGEWPWQVSLHALGQGHTCGASLISPNWLVSAAHCYIDDRGFRYSDPTQWTAFLGLHDQSQRSAPGVQERRLKRIISHPFFNDFTFDYDIALLELEKPAEYSSMVRPICLPDASHVFPAGKAIWVTGWGHTQEGGTGALILQKGEIRVINQTTCENLLPQDITPRMMCVGFLSGGVDSCQGDSGGPLSSVEADGRIFQAGVVSWGDGCAQRNNPGVYTRLPLFRDWIKENTGV |
| 72% | modified MT-SP1 CB481 (I41T/Y146D/G151L/Q175D/K224L) protease domain (enzyme) VVGGTDADEGEWPWQVSLHALGQGHTCGASLISPNWLVSAAHCYIDDRGFRYSDPTQWTAFLGLHDQSQRSAPGVQERRLKRIISHPFFNDFTFDYDIALLELEKPAEYSSMVRPICLPDASHVFPAGKAIWVTGWGHTQDGGTLALILQKGEIRVINQTTCENLLPQDITPRMMCVGFLSGGVDSCQGDSGGPLSSVEADGRIFQAGVVSWGDGCAQRNLPGVYTRLPLFRDWIKENTGV |
| 82% | modified MT-SP1 CB485 (I41T/Y146E/Q175D/K224L) protease domain (enzyme) VVGGTDADEGEWPWQVSLHALGQGHTCGASLISPNWLVSAAHCYIDDRGFRYSDPTQWTAFLGLHDQSQRSAPGVQERRLKRIISHPFFNDFTFDYDIALLELEKPAEYSSMVRPICLPDASHVFPAGKAIWVTGWGHTQEGGTGALILQKGEIRVINQTTCENLLPQDITPRMMCVGFLSGGVDSCQGDSGGPLSSVEADGRIFQAGVVSWGDGCAQRNLPGVYTRLPLFRDWIKENTGV |
| 58% | modified MT-SP1 CB489 (I41T/Y146E/G151L/Q175D/K224L) protease domain (enzyme) VVGGTDADEGEWPWQVSLHALGQGHTCGASLISPNWLVSAAHCYIDDRGFRYSDPTQWTAFLGLHDQSQRSAPGVQERRLKRIISHPFFNDFTFDYDIALLELEKPAEYSSMVRPICLPDASHVFPAGKAIWVTGWGHTQEGGTLALILQKGEIRVINQTTCENLLPQDITPRMMCVGFLSGGVDSCQGDSGGPLSSVEADGRIFQAGVVSWGDGCAQRNLPGVYTRLPLFRDWIKENTGV |
| 53% | modified MT-SP1 CB487 (I41T/Y146E/G151L/Q175D/K224N) protease domain (enzyme) VVGGTDADEGEWPWQVSLHALGQGHTCGASLISPNWLVSAAHCYIDDRGFRYSDPTQWTAFLGLHDQSQRSAPGVQERRLKRIISHPFFNDFTFDYDIALLELEKPAEYSSMVRPICLPDASHVFPAGKAIWVTGWGHTQEGGTLALILQKGEIRVINQTTCENLLPQDITPRMMCVGFLSGGVDSCQGDSGGPLSSVEADGRIFQAGVVSWGDGCAQRNNPGVYTRLPLFRDWIKENTGV |
